Consider 22 molecules from patent US20230192896A1 (published 2023).

Positions count from the first letter of the chain named.

The target in the experiment is T1, FX zymogen (UniProt P00742 41-179; P00742 183-488).
T1 chain 1: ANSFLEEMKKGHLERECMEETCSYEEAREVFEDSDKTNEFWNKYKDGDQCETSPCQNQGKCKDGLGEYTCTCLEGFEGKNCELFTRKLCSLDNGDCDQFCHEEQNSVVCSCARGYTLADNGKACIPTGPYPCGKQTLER
T1 chain 2: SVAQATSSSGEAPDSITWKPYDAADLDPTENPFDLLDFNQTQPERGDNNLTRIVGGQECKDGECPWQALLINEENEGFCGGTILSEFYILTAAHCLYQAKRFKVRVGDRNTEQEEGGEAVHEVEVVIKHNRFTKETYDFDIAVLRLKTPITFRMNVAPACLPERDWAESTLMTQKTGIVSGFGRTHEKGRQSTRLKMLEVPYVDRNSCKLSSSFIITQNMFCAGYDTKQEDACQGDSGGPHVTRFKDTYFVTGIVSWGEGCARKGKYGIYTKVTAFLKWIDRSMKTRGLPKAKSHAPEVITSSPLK
Description: BLI. (In general: BLI is a label-free optical method that tracks binding on a fibre tip over time.)

B1: BIIB-12-1325 (antibody, V domains shown)
VH: QVQLVQSGAEVKKPGASVKVSCKASGYTFTSYYMVWVRQAPGQGLEWMGIINPSGGSTSYAQKFQGRVTMTRDTSTSTVYMELSSLRSEDTAVYYCARGGRYMLDPWGQGTLVTVSS
VL: DIQMTQSPSTLSASVGDRVTITCRASQSISSWLAWYQQKPGKAPKLLIYKASSLESGVPSRFSGSGSGTEFTLTISSLQPDDFATYYCQQSNRYPRTFGGGTKVEIK
One may read the Kd as the constant that tells how readily two partners part at equilibrium. Lower therefore signals tighter binding. In turn, B1 gave a Kd of 17.8 nM.

B2: BIIB-12-1292 (antibody, V domains shown)
VH: QVQLVQSGAEVKKPGASVKVSCKASGYTFTSYYIHWVRQAPGQGLEWMGIINPSGGSTSYAQKFQGRVTMTRDTSTSTVYMELSSLRSEDTAVYYCARDPGRRQSSGFDYWGQGTLVTVSS
VL: EIVMTQSPATLSLSPGERATLSCRASQSVSSYLAWYQQKPGQAPRLLIYDSSNRATGIPARFSGSGSGTDFTLTISSLEPEDFAVYYCQQRLNFPFTFGGGTKVEIK
Consider B2, for which binding was characterised by a dissociation constant (Kd) of 65.5 nM.

B3: BIIB-12-1297 (antibody, V domains shown)
VH: QVQLVESGGGVVQPGRSLRLSCAASGFTFSSYGMHWVRQAPGKGLEWVAVISYDGSNKYYADSVKGRFTISRDNSKNTLYLQMNSLRAEDTAVYYCARSGGQTHRRSMDVWGQGTTVTVSS
VL: B2 VL with M4L, S31R, S51A, R91G, L92N, F94W, F96P
In the case of B3, the affinity, expressed as Kd, was 26.8 nM.

B4: BIIB-12-891 (antibody, V domains shown)
VH: B2 VH with D99A, P100S, G101I, R102Y, Q104G, S105L, S106G, G107A, Y110I, L116M
VL: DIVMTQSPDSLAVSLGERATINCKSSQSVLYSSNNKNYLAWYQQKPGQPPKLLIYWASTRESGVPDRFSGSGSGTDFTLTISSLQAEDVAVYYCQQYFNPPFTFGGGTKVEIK
B4 came in with an equilibrium dissociation constant (Kd) of 65.2 nM.

B5: BIIB-12-1310 (antibody, V domains shown)
VH: EVQLVESGGGLVKPGGSLRLSCAASGFTFSSYSMNWVRQAPGKGLEWVSSISSSSSYIYYADSVKGRFTISRDNAKNSLYLQMNSLRAEDTAVYYCARLGGYGSSQRYFDLWGRGTLVTVSS
VL: B2 VL with M4L, S31R, S51A, Q89E, R91A, L92S, F94W, F96P
B5 displayed a Kd of 46.1 nM.

B6: BIIB-12-892 (antibody, V domains shown)
VH: B2 VH with I34M, D99G, P100L, Q104T, S105P, S106T, G107A, Y110I, L116M
VL: B2 VL with M4L, S51A, F94L, F96L
Molecule B6 had a Kd of 33.2 nM.

B7: BIIB-12-1318 (antibody, V domains shown)
VH: QVQLVESGGGVVQPGRSLRLSCAASGFTFSSYGMHWVRQAPGKGLEWVAVISYDGSNKYYADSVKGRFTISRDNSKNTLYLQMNSLRAEDTAVYYCARKGDYRSGSYSGRAFGIWGQGTMVTVSS
VL: B2 VL with M4L, S51A, R91L, L92N, F94W, F96P
B7 came in with a dissociation constant (Kd) of 56.1 nM.

B8: BIIB-12-936 (antibody, V domains shown)
VH: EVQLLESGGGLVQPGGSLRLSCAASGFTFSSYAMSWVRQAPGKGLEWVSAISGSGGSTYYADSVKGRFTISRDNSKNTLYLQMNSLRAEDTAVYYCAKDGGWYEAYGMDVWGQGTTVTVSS
VL: EIVMTQSPATLSVSPGERATLSCRASQSVSSNLAWYQQKPGQAPRLLIYGASTRATGIPARFSGSGSGTEFTLTISSLQSEDFAVYYCQQSHNLPPTFGGGTKVEIK
Take B8: the affinity, expressed as Kd, was 66 nM.

B9: BIIB-12-917 (antibody, V domains shown)
VH: EVQLVQSGAEVKKPGESLKISCKGSGYSFTTYWIGWVRQMPGKGLEWMGIIYPGDSDTRYSPSFQGQVTISADKSISTAYLQWSSLKASDTAMYYCARGRFRPRGRFDYWGQGTLVTVSS
VL: B8 VL with S91L, H92F, L94H
For the molecule B9, binding was put at a Kd of 31.5 nM.

B10: BIIB-12-1315 (antibody, V domains shown)
VH: QVQLVQSGAEVKKPGASVKVSCKASGYTFTSYYMVWVRQAPGQGLEWMGIINPSGGSTSYAQKFQGRVTMTRDTSTSTVYMELSSLRSEDTAVYYCARGRPSSKRVTYFDYWGQGTLVTVSS
VL: EIVMTQSPATLSVSPGERATLSCRASQSVSSNLAWYQQKPGQAPRLLIYGASTRATGIPARFSGSGSGTEFTLTISSLQSEDFAVYYCQQVFNWPPWTFGGGTKVEIK
B10 showed a Kd of 53.2 nM.

B11: BIIB-12-913 (antibody, V domains shown)
VH: QVQLVQSGAEVKKPGASVKVSCKASGYTFTSYGISWVRQAPGQGLEWMGWISAYNGNTNYAQKLQGRVTMTTDTSTSTAYMELRSLRSDDTAVYYCARGGVSRFWGQGTLVTVSS
VL: B10 VL with V91Y, F92A, N93P, W94Y, W97L
For B11, binding was characterised by a dissociation constant (Kd) of 78.5 nM.

B12: BIIB-12-935 (antibody, V domains shown)
VH: QVQLVESGGGVVQPGRSLRLSCAASGFTFSSYGMHWVRQAPGKGLEWVAVISYDGSNKYYADSVKGRFTISRDNSKNTLYLQMNSLRAEDTAVYYCARELEYGHYGMDVWGQGTTVTVSS
VL: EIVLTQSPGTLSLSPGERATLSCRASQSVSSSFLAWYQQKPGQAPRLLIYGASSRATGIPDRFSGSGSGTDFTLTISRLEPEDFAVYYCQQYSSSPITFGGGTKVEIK
The molecule B12 had a Kd of 38.8 nM.

B13: BIIB-12-1306 (antibody, V domains shown)
VH: QVQLQESGPGLVKPSQTLSLTCTVSGGSISSGGYYWSWIRQHPGKGLEWIGSIYYSGSTYYNPSLKSRVTISVDTSKNQFSLKLSSVTAADTAVYYCARGAGGSAPWGQGTLVTVSS
VL: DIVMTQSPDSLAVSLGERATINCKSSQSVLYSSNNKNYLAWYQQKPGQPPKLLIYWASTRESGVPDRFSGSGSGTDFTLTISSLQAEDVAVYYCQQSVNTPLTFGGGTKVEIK
In turn, B13 gave a Kd of 47 nM.

B14: BIIB-12-1319 (antibody, V domains shown)
VH: QVQLVESGGGVVQPGRSLRLSCAASGFTFSSYGMHWVRQAPGKGLEWVAVISYDGSNKYYADSVKGRFTISRDNSKNTLYLQMNSLRAEDTAVYYCARTGYHRSVYYWGQGTLVTVSS
VL: EIVMTQSPATLSVSPGERATLSCRASQSVSSNLAWYQQKPGQAPRLLIYGASTRATGIPARFSGSGSGTEFTLTISSLQSEDFAVYYCQQASNFPPTFGGGTKVEI
As to B14, the affinity, expressed as Kd, was 31 nM.

B15: BIIB-12-909 (antibody, V domains shown)
VH: QVQLVESGGGVVQPGRSLRLSCAASGFTFSSYGMHWVRQAPGKGLEWVAVISYDGSNKYYADSVKGRFTISRDNSKNTLYLQMNSLRAEDTAVYYCAKGKHRRRSFDIWGQGTMVTVSS
VL: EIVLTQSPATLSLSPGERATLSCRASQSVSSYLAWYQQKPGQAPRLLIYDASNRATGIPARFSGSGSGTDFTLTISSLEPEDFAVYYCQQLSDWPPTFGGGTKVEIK
Take B15: the Kd stood at 69.7 nM.

B16: BIIB-12-1293 (antibody, V domains shown)
VH: QVQLVQSGAEVKKPGASVKVSCKASGYTFTSYYMHWVRQAPGQGLEWMGIINPSGGSTSYAQKFQGRVTMTRDTSTSTVYMELSSLRSEDTAVYYCARGSGGKHRGLDVWGQGTMVTVSS
VL: DIQMTQSPSSVSASVGDRVTITCRASQGISSWLAWYQQKPGKAPKLLIYAASSLQSGVPSRFSGSGSGTDFTLTISSLQPEDFATYYCQQANIFPFTFGGGTKVEIK
B16 returned a dissociation constant Kd of 26 nM.

B17: BIIB-12-1324 (antibody, V domains shown)
VH: B16 VH with H35V, G99L, S100P, G101R, G102Y, K103S, H104K
VL: EIVMTQSPATLSLSPGERATLSCRASQSVSSYLAWYQQKPGQAPRLLIYDSSNRATGIPARFSGSGSGTDFTLTISSLEPEDFAVYYCQQLVSWPTFGGGTKVEIK
In the case of B17, binding was put at a Kd of 67.7 nM.

B18: BIIB-12-921 (antibody, V domains shown)
VH: QVQLVESGGGVVQPGRSLRLSCAASGFTFSSYGMHWVRQAPGKGLEWVAVISYDGSNKYYADSVKGRFTISRDNSKNTLYLQMNSLRAEDTAVYYCAKVGDRGTRAFDPWGQGTLVTVSS
VL: B16 VL with S31R, A91G, I93V, F96L
B18 gave a dissociation constant Kd of 23.1 nM.

B19: BIIB-12-1317 (antibody, V domains shown)
VH: QVQLVESGGGVVQPGRSLRLSCAASGFTFSSYGMHWVRQAPGKGLEWVAVISYDGSNKYYADSVKGRFTISRDNSKNTLYLQMNSLRAEDTAVYYCARGVGGHDTRWGQGTLVTVSS
VL: B16 VL with A91R, N92H, I93S, F94L, F96P
B19 returned a Kd of 27.1 nM.

B20: BIIB-12-899 (antibody, V domains shown)
VH: QVQLVQSGAEVKKPGASVKVSCKASGYTFTSYYMHWVRQAPGQGLEWMGIINPSGGSTSYAQKFQGRVTMTRDTSTSTVYMELSSLRSEDTAVYYCARGPRTSSPLYFDLWGRGTLVTVSS
VL: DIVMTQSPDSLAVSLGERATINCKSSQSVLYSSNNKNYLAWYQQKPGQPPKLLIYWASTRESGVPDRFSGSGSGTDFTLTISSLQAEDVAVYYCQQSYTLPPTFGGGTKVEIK
The molecule B20 came in with a Kd of 34.2 nM.

B21: BIIB-12-929 (antibody, V domains shown)
VH: QVQLVQSGAEVKKPGASVKVSCKASGYTFTSYYMHWVRQAPGQGLEWMGIINPSGGSTSYAQKFQGRVTMTRDTSTSTVYMELSSLRSEDTAVYYCARDQGYSRSFDIWGQGTMVTVSS
VL: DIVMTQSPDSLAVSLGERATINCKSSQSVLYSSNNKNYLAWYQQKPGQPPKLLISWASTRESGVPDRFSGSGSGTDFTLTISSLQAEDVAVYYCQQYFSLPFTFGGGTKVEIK
On to B21, for which binding was put at a Kd of 15.2 nM.

B22: BIIB-12-914 (antibody, V domains shown)
VH: B21 VH with D99A, Q100P, G101R, S103R, R104G, S105T, F106M, I108V, M114T
VL: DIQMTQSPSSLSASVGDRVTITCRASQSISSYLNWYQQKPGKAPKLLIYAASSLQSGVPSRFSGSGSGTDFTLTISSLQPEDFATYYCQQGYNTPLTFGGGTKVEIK
Regarding B22, binding was characterised by a dissociation constant (Kd) of 48.1 nM.
